experiment: yeast display, Sf9 membrane polyspecificity reagent, FACS + sequencing; frameworks hold sequencing errors
Summary of the method: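 Nanobodies came from a synthetic yeast display library in Saccharomyces cerevisiae BJ5465, induced with galactose for 36–48 hours and stained for 1 hour at 4 °C with 10% biotinylated, detergent-solubilized Sf9 membrane reagent. Cells were enriched on streptavidin microbeads and then FACS-sorted, with low and high (top ~1%) gates set on anti-HA fluorescence for expression and streptavidin fluorescence for reagent binding. Each polyreactivity label reflects the gate a clone came from. Genes were amplified by colony PCR, sequenced by MiSeq 2 × 250 and filtered by CDR length.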

| Sequence | polyreactivity (PSR sort gate) |
| --- | --- |
| QVQLVESGVGLVQAGGSLRLSCAASGSTFYPNAMGWYRQAPRKERELVAAISRGTRTKYADSVKGRFTISRDNAKNTVYLQMNSLKPEDTAVYYCAADTGTGLDWGQGTQVTVSS | high polyreactivity |
| QVQLVESGVGLVQAGGSLRLSCAASGSTFYSNAMGWNRQAPGKERELVASISWSSGSTYYADSVKGRFTISRDNAKNTVYLQMNSLKPEDTAVYYCATDAGGPYRFGYWGQGTQVTVSS | low polyreactivity |
| QVQLVESGVGLVQAGGSLRLSCAASGSTFYYYAMGWYRQAPGKERELVAAISWSGASTFYADSVKGRFTISRDNAKITVYLQMNSLKPEDTAVFYCAARYYGQPQYQPLYYWGQGTQVTVSS | high polyreactivity |
| QVQLVESGVGLVQAGGSLRLSCAASGSTIQYYAQGRYRQAPGKEREFVAAISISGGSTYYADSLKGRFTISRDNAKNTVYLQMNSLIPEDSEVYYCAARKKEYKPGKYWGQGTQVTVSS | low polyreactivity |
| QVQLVESGVGLVQAGGSLRLSCAASGYIFYQYAMGWYRQAPGKERELVSTISWRGGSTYYADSVKGRFTISRDNAKNTVYLQMNCLKPEDTAVYYCAARKRPYTVINGMDYWGQGTQVTVSS | low polyreactivity |
| QVQLVESGVGLVQAGGSLRLSCAASGYTFQINAMGWYRQAPGKERELVAAITSGGRTYYADSVKGRFTISRDNAKNTVYLQMNSLKAEDTAVYYCNKVPRRGVDYWGQGTQVTVSW | low polyreactivity |
| QVQLVESGVGLVQAGGSLRLSCAPSGSTFWVNGMGWYRPAPGKERELVASISQSGDNTYYADSVKGRFTISRDNAKNTVYLQMNSLKPEDTAVSYCATRYQYGGFLYYRFDDWGQGTQVTVSS | high polyreactivity |
| QVQLVESGVGLVQAGGSLRLSCASSGLTLNQYAIGWYRQAPGKERELVAAITRGGGSTYYADSVKGRFTISRDNAKYTVYLQMNSLKPEDTAVYYCATDNWWPTYHYQGGYYWGQGTQVTVSS | low polyreactivity |
| QVQLVESGVGLVQAGGSLRLSCDATGSILGINVMGWYRQAPGKEREVVAAISRRGGSTYYADSVKGRFTISRDNSKNTVYLQMNSLKPEDTAVYYCAAGTSYYYGSYRFYYWGQGTQVTVSS | high polyreactivity |
| QVQLVESGVGLVQAGGSLRLSSAASGFTFIYYAMGWYRQAPGKERELVAAITSGGNTYYADSVKGRFTISRDNAKNTDYLQMNSLTPEDPAVYYCNKVPHREWVGGYDYWGQGTQVTVSS | low polyreactivity |
| QVQLVESGVGLVQAGGSLRLSSAASGRILRQYAMGWYRQAPGKERELVAAITSSGGSTYYADSVKGRFTISRDNAKNTVYLQMNSLKPEDTAVYYCNARLRGAKYDYWGQGTQVTVSS | high polyreactivity |
| QVQLVESGVGLVQAGGSLRLSSAASGRTFPSNNMGWYRQAPGKERELVAAISKNGGSTYYADSVKGRFTISRDNAMNTVYLQMNRLKPEDTAVYYWAATGVSSKRLASQRKLDYWGQGSQVTVSS | high polyreactivity |
| QVQLVESGVGLVQAGGSLRLSSDASGSIFGTYAMGWYRQAPGKERELVAAITGNGGRTYYADSVKGRFTISRDNAKNTVYLQMHSLKAEDTAVYSCAISSSRGGFYYWGQGNQVTVSS | high polyreactivity |
| QVQLVESGVGLVQAGGSLSLSCAASGRLFNYYAMGWYRQAPGKERELVAAISSSGGRTYYADSVKGRFTISRDNAKNTVYLQMNCLKPEDTAVFYCAAYDSLRYSTYDYWGQGTQVTVSS | high polyreactivity |
| QVQLVESGVGLVQAGGTLRISCAASGRISRGYAMGWYRQAPGKERELVAAISRRGDSTYYADSVKGRFTISRDNAKYTVYLQMNSLKPEDTAVYYCAARNGGRYAAGLDYWGQGTHVTVSS | high polyreactivity |
| QVQLVESGVGLVQAGGTLRLSCAPSGSTFSVYAMGWYRQPPGKERELVADITRGGSTYADSVKGRFTISRDNAKITVYLQMNSLKPEDTAVYYCAGEEVTPYPLYWSTREYDYWGQGTQVTVSS | low polyreactivity |
| QVQLVESGVGLVQAGVSLRISCAASGSIFDTYAMGWYRQAPGKERELVAAIRWTGGSTYYADSVKGRFTISRDNAKNTVYLQMNSLKREDTAVYYCATPSYGRPGFGYWGQGTQVTVSS | low polyreactivity |
| QVQLVESGVGLVQARGSLPLSCAASGSIFYYYVMGWYRQAPGKERELVAAIRSSGTSTYYADSVKGRFTISRDNAKNTVYLQRNSLKPEDTAVYYCNRARSSSRYDYWGQGTQVTVSS | low polyreactivity |
| QVQLVESGVGLVQARGSLRISCAASGFIFDLYAMGWYIQAHGKERELVAAITTSGGTTYYADSVKGRFTISRDNAKNTVYLQMNSLKPEDTAVYYCNALRRYVSVRPTKSDYWGQGTQVTVSS | high polyreactivity |
| QVQLVESGVGLVQARGSLRLSCAASGVISSINAVGWNRLAAAKEWELVAGIRARGTSPYYADSVKGRFTISRDNAKNTVYLQMNCLKPEDTAVYDCAADVDAGRHYGYWGQGTQVTVSS | low polyreactivity |
| QVQLVESGVGLVQARGSLRLSSASSGSILSTYAMGCYRQAPGKERELVASISSNAGSTYYADSVKGRFTISRDNAKNTVYLQMNSLKPEDTAVYYCNVKYKYYSPNYDYWGEGTQVTVSS | low polyreactivity |
| QVQLVESGVGLVQAVGSLRLSCAASGIIFPYYPMGWYRQAPGKERELVAAISTGGSTYYADSVKGRFTISRDNAKNTVYLQMNSLKPEDTAVYFCAARVARYRSTKRYDYWGQGTQVSVSS | high polyreactivity |

| Sequence | polyreactivity (PSR sort gate) |
| --- | --- |
| QVQLVESGVGLVQAVGSLRLSCAASGRIFPAYVMGWYRQAPGKERELVATIDNGGGTYYADSVKGRFTISCDNAKYTVYLQMNSLKPEDTAVYYCARDRHVRWGLKRDYWGQGTQVTVSS | low polyreactivity |
| QVQLVESGVGLYQAGGSLRLSCAASGSIFEENAMVWYRQAPGKEMELVAAITIGGRTNYADSVKGRFTISRDNAKNTVYLEMNSLKPEDTAVYYCASDLSSIKYWLFWTRYYYWGQGTQVNVSS | low polyreactivity |
| QVQLVESGVRLVQAGGSLRLSCASSAITFGKNAMGWYRQAPGTESELVAAITRDGGTNYADSVKGRFTISRDNAMNTVYLHMNILKPEDTAVYYCAKRAYIYYGRYDYWGQGTQVTVSS | low polyreactivity |
| QVQLVESGVRLVQAGGSLRLTCAASGNTFVAYAMGWYRQAPGKERDLVAGITRGGTTYYADSVKGRFTISRDNAKNSVYLQMNSLKPEDTAEYDCAARLGYRYNYWGQGTQVTVSS | high polyreactivity |
| QVQLVESGVVLVQAGGSLRLSCAASGYTFRVYTMGWYRQAPGKERELVAAISRRGSRTYYADSVKGRFTISRDYAKNTVYLQKNSLKPEDTAVYYCAAGIPYPDDYWGLGTQVTVSS | high polyreactivity |
| QVQLVESLGGLVQAGGSLRLSCAASGFTFTNYAMGWYRQAPGKERELVAAINSSGSTNYADSVKGRFTISRDNAKNTVYLQMNSLKPEDTAVYYCAVDYSYWVHGFWDDYDYWGQGTQVTVSS | low polyreactivity |
| QVQLVESLGGLVQAGGSLRLSFAASGFIFAKYAIGWYRKAAGKERELVAAITSGGSTNYADSVKGRFTISRDNAKNTVFLQMNSLKPEDTAVYYCNRGFDWCYRYRHYDYCGQGTQVTVSS | low polyreactivity |
| QVQLVESPGRLVQAGGSLRLSCDPTGRTFKIYALGSSRQAPGKESELVAAIRRSGGNTYYADSVKGRFTISRDNAKNTVYLQMNSLKPEDTAVYYCAVGRGSLRGRTDGGYWGQGTQVTVSS | high polyreactivity |
| QVQLVESRGALVQAGGSLRLSCAASGPIFDSYAMGWYRQATGKERELVATISRDSASTYYADSVKGRLTISRDNAKNTVYLQMNSLNPADTAVYYCSAGGSSSWAYNYWGHGTQVTVSS | low polyreactivity |
| QVQLVESRGCLVQAGGSLRLSCAASGSIFVNNAMGWYRPAPGYERELCAAITSGTRTNYADSVKGRFTISRDNAKNTVYLQMNSLKPEDTAVYYCATESAQYSWYYPGHPGYGYWGQGSQVTVSS | low polyreactivity |
| QVQLVESRGCLVQAGGSLRLSCAASGSISIKNAMGWYRQAPGKERELVATITYNGGSTYYADSVKGRFTISRDNAKNTVYLQMNSLKPEDTAVYYCARDAFEPYDVGEYYYWGQGTQVTVSS | low polyreactivity |
| QVQLVESRGGFVQARCSLRLSCDASGRIFYYYGMGWYRQAPGKERELVAAITRNTGRTYYADSVKGRFTISRDNAKNTVYLQMNSLKPEDSSVYYFARDRRTWSPYTRAYRRNDYWVQGTQVTVSS | high polyreactivity |
| QVQLVESRGGLVHAGGSLRLSCAASGSIFQSYYMGWYRQAPGKERELVAAISWSGSTTYYADSVKGRFTISRDNAKNTVYLQMNSLKPEDTAVYYCAVDSNPPDWWAVIYGYWGQGTQVTVSS | low polyreactivity |
| QVQLVESRGGLVQAGGSHRLSCAASGSIFGANAMGWYRQAPGKERELVAAITSGSGTNYADSVKGRFTISRDNAKNTVYLQMISLNPEDTAVYYCAAVVLYQGRYDYWGQGTQVTVSS | low polyreactivity |
| QVQLVESRGGLVQAGGSLPLSCAASGSIFSRNALGWYRQAPGKERELVAAITWSGGSTYYADSVKGRFTISRDNAKNTVYLQMNSLKAEDTAVYYCNAKRSSRIKQLEYDYWGKGTQVTVSS | high polyreactivity |
| QVQLVESRGGLVQAGGSLRLRCAASGFILDTYGIVWYRQAPGKERELVAAIYQSDVSTYYADSVKGRFTISRDNAKNTVYLQMNSLKPEDTAVYYCAADRGVLRWFCQVLYDYWGQGTQVTVSS | low polyreactivity |
| QVQLVESRGGLVQAGGSLRLSCAASGFIFGFYALGWYRQEPGTEMELVAAITWDGGSTYYADSVKGRFTISRDNAKNTVYLQMNSLKPEDTAVYYCAAYFQYQDVDYDYWGQGTQVTVSS | high polyreactivity |
| QVQLVESRGGLVQAGGSLRLSCAASGFIFYWNAMGWYRQAPGKEREFVATITWSGGSTYYADSVKGRFTISRDNAKNTVYLQMNSLKPEDTAVYYCNADVTWEDDYCGQGTQVTVSS | low polyreactivity |
| QVQLVESRGGLVQAGGSLRLSCAASGFTFWDNVIGWYRQAPGKERELVAAISNSGGRTYYADSVKGRFTISRDNEKNTVYLQMNILKPEDTAVYYCARYGRRHGYPILDYWGQGTQVTVSS | high polyreactivity |
| QVQLVESRGGLVQAGGSLRLSCAASGGTFSLNAMGWYRQAPGKERELVAANSKRSSTTYYADSVKGRFTISRDNAKNTVYLQMNSLKPEDTAVYYCAARVLRSRKPGPGYDYWGQGTQVTVSS | high polyreactivity |
| QVQLVESRGGLVQAGGSLRLSCAASGIIFHFYAMGWYRQAPGKERELVAAINSRGGSTYYADSVKGRFTISRDNAKNTVYLQMNSLKPEDTAVYYCAAQYLFYGHDYWGQGTQVTVSS | low polyreactivity |

Reference: the nanobody polyreactivity screen of Harvey et al. (2022)
